Assay [1] addresses HIS-gG3PD_C (C-terminal half of gG3PD, N-terminal 6xHIS-tagged) (Giardia duodenalis (isolate WB clone C6)). Description: native gel or EMSA; 3-12% Blue Native PAGE of purified HIS-tagged recombinant proteins (1 μg by the methods, 3 μmol by the legend), silver stain or anti-HIS blot. A general note: In EMSA bound probe runs differently from free probe, usually more slowly.
Assay [2] concerns the target HIS-gG3PD (full-length gG3PD, N-terminal 6xHIS-tagged) (Giardia duodenalis (isolate WB clone C6)). The assay is described as above.

In general, stoichiometry N refers to the number of molecules, sites or subunits per partner or assembly. With “HIS-gG3PD_C (C-terminal half of gG3PD, N-terminal 6xHIS-tagged) (domain or fragment)”, the stoichiometry N in assay [1] came to 2.
“HIS-gG3PD (full-length gG3PD, N-terminal 6xHIS-tagged) (enzyme)”: in assay [2], the stoichiometry N came out at 2.
